Earlier results in publication PMC6165679.

Experiments:
[1] = molecular target: APJ receptor (Homo sapiens) (UniProt P35414)
[2] = molecular target: APJ receptor (Homo sapiens) (UniProt P35414); experiment: competition binding

Sequence of UniProt P35414 (P35414 whole entry): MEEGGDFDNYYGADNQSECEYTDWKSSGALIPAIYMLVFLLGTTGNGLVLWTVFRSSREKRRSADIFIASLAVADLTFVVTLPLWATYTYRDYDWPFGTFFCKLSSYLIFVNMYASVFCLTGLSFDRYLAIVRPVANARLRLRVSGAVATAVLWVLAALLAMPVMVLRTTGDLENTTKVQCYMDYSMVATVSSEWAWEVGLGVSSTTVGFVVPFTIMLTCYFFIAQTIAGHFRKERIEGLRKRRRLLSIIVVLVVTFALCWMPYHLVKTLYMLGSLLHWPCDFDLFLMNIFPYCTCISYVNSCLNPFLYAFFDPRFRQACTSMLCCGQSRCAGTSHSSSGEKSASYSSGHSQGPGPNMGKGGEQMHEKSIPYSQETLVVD

In the case of cyclo(1–6)CRPRLC-KH-cyclo(9–14)CRPRLC, the Ki [1] is given as 82 nM and the Kd [2] is given as 3200 nM.
